Laboratory results published in patent US20200339702A1 (ULTRAHUMAN THIRTEEN, published 2020).

T1: rhesus ERBB3 on transiently transfected HEK-293 cells (rhesus monkey (Macaca mulatta), UniProt P21860 20-1342 (human entry))
T1 construct: also called rhesus ERBB3+ HEK-293 cells
T1 chain: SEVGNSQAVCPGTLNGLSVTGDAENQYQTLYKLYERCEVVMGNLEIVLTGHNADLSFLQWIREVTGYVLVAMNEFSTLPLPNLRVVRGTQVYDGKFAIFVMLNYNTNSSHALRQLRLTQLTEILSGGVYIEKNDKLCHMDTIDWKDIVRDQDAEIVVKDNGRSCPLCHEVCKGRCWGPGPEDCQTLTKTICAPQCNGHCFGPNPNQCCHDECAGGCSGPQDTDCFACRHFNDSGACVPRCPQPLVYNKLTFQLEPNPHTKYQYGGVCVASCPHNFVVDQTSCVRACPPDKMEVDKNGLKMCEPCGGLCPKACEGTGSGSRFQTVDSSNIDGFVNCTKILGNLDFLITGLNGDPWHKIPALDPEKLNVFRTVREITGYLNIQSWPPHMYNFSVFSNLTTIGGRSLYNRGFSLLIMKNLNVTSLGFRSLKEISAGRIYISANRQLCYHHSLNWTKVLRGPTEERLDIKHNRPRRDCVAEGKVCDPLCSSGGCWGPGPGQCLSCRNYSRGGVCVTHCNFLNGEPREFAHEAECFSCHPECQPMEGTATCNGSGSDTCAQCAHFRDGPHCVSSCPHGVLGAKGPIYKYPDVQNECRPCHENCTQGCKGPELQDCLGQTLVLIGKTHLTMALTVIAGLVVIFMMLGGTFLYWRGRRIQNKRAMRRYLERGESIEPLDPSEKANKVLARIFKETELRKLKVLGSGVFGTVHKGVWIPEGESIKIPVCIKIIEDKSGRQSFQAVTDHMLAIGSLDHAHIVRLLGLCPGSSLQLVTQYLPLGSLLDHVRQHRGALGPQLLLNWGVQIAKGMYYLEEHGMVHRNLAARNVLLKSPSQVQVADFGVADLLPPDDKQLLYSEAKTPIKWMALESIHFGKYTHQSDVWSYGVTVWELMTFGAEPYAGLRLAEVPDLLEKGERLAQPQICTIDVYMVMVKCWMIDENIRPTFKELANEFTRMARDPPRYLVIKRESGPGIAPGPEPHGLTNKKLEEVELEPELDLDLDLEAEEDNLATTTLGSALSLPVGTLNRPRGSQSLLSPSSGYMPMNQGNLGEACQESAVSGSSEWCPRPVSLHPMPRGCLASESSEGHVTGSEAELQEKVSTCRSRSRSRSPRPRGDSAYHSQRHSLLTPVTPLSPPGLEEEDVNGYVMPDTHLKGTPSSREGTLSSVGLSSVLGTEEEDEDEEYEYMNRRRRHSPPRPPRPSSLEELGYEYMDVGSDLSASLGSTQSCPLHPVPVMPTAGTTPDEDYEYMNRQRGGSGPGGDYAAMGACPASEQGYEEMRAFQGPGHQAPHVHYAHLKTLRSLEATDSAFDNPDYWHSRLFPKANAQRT


Assays:
[1] = target: T2, human ERBB3 His tagged, monomeric (human, UniProt P21860 20-643, biotinylated in the Alphascreen assays (sites not given)); test: SPR (Biacore), captured IgG, monomeric ERBB3-His analyte
T2 construct: Used unbiotinylated as Biacore analyte and biotinylated in Alphascreen; treated as one molecule; also called human ERBB3-His (Acrobiosystems); biotinylated monomeric human ERBB3

[2] = target: T1, rhesus ERBB3 on transiently transfected …; test: flow cytometry, rhesus ERBB3-transfected HEK-293 cells, IgG1null titrated
Description: Purified IgGs were tested in FACs for binding to human and rhesus monkey ERBB3 expressed on transiently transfected HEK-293 cells and HEK-293 wild-type cells. The IgG samples were titrated in three-fold serial dilutions starting at 500 nM to 0.008 nM. Binding of IgGs was detected with a mouse anti-human IgG conjugated to FITC. Results were analyzed by examining the Mean Fluorescence Intensity (MFI) of 10000 cells per sample in the BL-1 channel detector of a flow cytometer (Attune™ NxT Acoustic Focusing Cytometer, Invitrogen/ThermoFisher Scientific).
Antibodies to ERBB3 were analysed for concentration-dependent binding at the cell surface via flow cytometry. HEK-293 cells were transiently transfected with either human or rhesus ERBB3 full-length cDNAs. Anti-ERBB3 IgGs and an isotype control were then all tested in IgG1null format, over a concentration range of 500-0.008 nM for binding to human (FIG. 5A) and rhesus (FIG. 5B) transfected cells.

[3] = target: T2, human ERBB3 His tagged, monomeric; test: Alphascreen competition in solution, competitor h24C05 IgG1null, biotinylated human ERBB3-His
Description: The AlphaScreen assay (Perkin Elmer) was performed in a 25 μl final volume in 384-well white microtiter plates (Greiner). The reaction buffer contained 1×PBS pH 7.3 (Oxoid, Cat. nr. BR0014G) and 0.05% (v/v) Tween® 20 (Sigma, Cat. nr. P9416). Purified IgG samples were titrated in three fold serial dilutions starting at 100 nM final concentration and incubated with biotinylated human ERBB3-His (Acrobiosystems) at 1 nM final concentration for 20 minutes at room temperature. The parental IgG and the anti-human IgG1 Acceptor beads at were added and the mix was incubated for 1 hour at room temperature. Followed by addition of the Streptavidin Donor beads and incubation for 30 minutes at room temperature. The emission of light was measured in the EnVision multilabel plate reader (Perkin Elmer) and analysed using the EnVision manager software. Values were reported as Counts Per Second (CPS) and corrected for crosstalk.

[4] = target: T2, human ERBB3 His tagged, monomeric; test: SPR (Biacore)
Description: Affinity (KD) of purified IgGs was determined via SPR with antigen in-solution on a Biacore® 3000 (GE). A mouse anti-human antibody (CH1 specific) was immobilized on a CM5 Sensor Chip to a level of 2000 RU in acetate buffer at pH 4.5 using amine coupling following the Wizard instructions for two channels. One channel was used for background signal correction. The standard running buffer HBS-EP pH 7.4 was used. Regeneration was performed with a single injection of 10 μl of 10 mM Glycine at pH 1.5 at […]. IgG samples were injected for 2 minutes at 50 nM at 30 μl/min followed by an off-rate of 60 seconds. The monomeric antigen (human ERBB3 His tagged or rhesus monkey ERBB3 His tag) was injected in two fold serial dilutions from 3 nM down to 0.2 nM, for 2 minutes at 30 μl/min followed by an off-rate of 300 seconds. The obtained sensorgrams were analysed using the Biacore® 3000 evaluation (BlAevaluation) software. The KD was calculated by simultaneous fitting of the association and dissociation phases to a 1:1 Langmuir binding model.

Kd [1]	koff [1]	kon [1]	EC50 (read off the curve) [2]	IC50 (read off the curve) [3]	fold loss of KD against clone MH5 [4]	Binder
0.27 nM	0.0035 s⁻¹	1.3e+07 M⁻¹ s⁻¹	~0.4 nM			09D12 IgG1null (antibody, V domains shown, Human IgG1null and human Ckappa) VH: QVQLVESGGGLVKPGGSLRLSCAASGFTFSDYGMSWIRQAPGKGLEWVSTISDGGSYTYYADSVKGRFTISRDNAKNSLYLQMNSLRAEDTAVYYCAREYGDYDGFDYWGQGTLVTVSS VL: DIQMTQSPSSLSASVGDRVTITCRASQSISSYLNWYQQKPGKAPKLLIYAASSLDSGVPSRFSGSGSGTDFTLTISSLQPEDFATYYCLQYDSTPLTFGGGTKVEIK
1.2 nM	0.073 s⁻¹	6.2e+07 M⁻¹ s⁻¹	~0.9 nM	~5 nM	~2 fold	TTP IgG1null (antibody, V domains shown, Designer clone; Human IgG1null and human Ckappa; also called Total Theoretically Possible clone) VH: QVQLVESGGGLVKPGGSLRLSCAASGFTFSDYGMSWIRQAPGKGLEWVSTISDSGSTIYYADSVKGRFTISRDNAKNSLYLQMNSLRAEDTAVYYCAREYGDYDGFDYWGQGTLVTVSS VL: DIQMTQSPSSLSASVGDRVTITCRASQSISSYLNWYQQKPGKAPKLLIYAASSLQSGVPSRFSGSGSGTDFTLTISSLQPEDFATYYCLQYDSTPLTFGGGTKVEIK
